Results published in article PMC3355305, “Localized Dimerization and Nucleoid Binding Drive Gradient Formation by the Bacterial Cell Division Inhibitor MipZ” (Molecular Cell, 2012).

B1: MipZ (wild type), hexahistidine-tagged [Caulobacter crescentus] / itself (parent)
chain: MAETRVIVVGNEKGGAGKSTIAVHLVTALLYGGAKVAVIDLDLRQRTSARFFENRRAWLDNKKIELPEPLALNLSDNDVALAERPEEEQVAGFEAAFARAMAECDFILIDTPGGDSAITRMAHGRADLVVTPMNDSFVDFDMLGTVDPVTLELTKPSLYSLTVWEGRKQRALSGQRQAMDWVVLRNRLATTEARNRKRLEDRLNALAKRVGFRIGPGLRDRVIYRELFPFGLTIADLSPQVRPVPVSLQHLAARQELRALMHSLGLSAYSGETMLAAQ

Variants of: B1
Test: SPR
Conditions: with itself; 3500 RU immobilized protein; 0.5 μM soluble protein; + ATP; parent: 370; read off a plot

Row | Variant | response [RU]
1 | MAETRVIVVGNEKGGAGKSTIAVHLVTALLYGGAKVAVIDLALRQRTSARFFENRRAWLDNKKIELPEPLALNLSDNDVALAERPEEEQVAGFEAAFARAMAECDFILIDTPGGDSAITRMAHGRADLVVTPMNDSFVDFDMLGTVDPVTLELTKPSLYSLTVWEGRKQRALSGQRQAMDWVVLRNRLATTEARNRKRLEDRLNALAKRVGFRIGPGLRDRVIYRELFPFGLTIADLSPQVRPVPVSLQHLAARQELRALMHSLGLSAYSGETMLAAQ [chain 1 D42A] | 910

Same assay, conditions: with itself; 3500 RU immobilized protein; 0.5 μM soluble protein; ATP in the binding phase; wash with buffer lacking protein and nucleotides

Row | Variant | koff [s⁻¹]
2 | MAETRVIVVGNEKGGAGKSTIAVHLVTALLYGGAKVAVIDLALRQRTSARFFENRRAWLDNKKIELPEPLALNLSDNDVALAERPEEEQVAGFEAAFARAMAECDFILIDTPGGDSAITRMAHGRADLVVTPMNDSFVDFDMLGTVDPVTLELTKPSLYSLTVWEGRKQRALSGQRQAMDWVVLRNRLATTEARNRKRLEDRLNALAKRVGFRIGPGLRDRVIYRELFPFGLTIADLSPQVRPVPVSLQHLAARQELRALMHSLGLSAYSGETMLAAQ [chain 1 D42A] | 0.00112
